Source: patent publication US5736294A, “Reagents and methods for modulating gene expression through RNA mimicry” (ISIS Pharmaceuticals, Inc., priority 1991, dated 1998)

T1: HIV-1 Tat 25-mer peptide (tat25) (Human immunodeficiency virus 1, UniProt P69698 SEQ:1-25)
T1 chain: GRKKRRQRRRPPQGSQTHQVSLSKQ

T2: HIV-1 Tat 37-mer peptide (tat37) (Human immunodeficiency virus 1, UniProt P69698 SEQ:1-37)
T2 chain: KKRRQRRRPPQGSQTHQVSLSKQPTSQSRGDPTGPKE


Assays:
[1] = target: T1, HIV-1 Tat 25-mer peptide (tat25); experiment: EMSA; 1:1 KD; repeated in Table 4 under tat37 heading; conditions: protein: synthetic, tags: peptide fragment, label: 32P, hairpin, stem-bulge-loop
[2] = target: T1, HIV-1 Tat 25-mer peptide (tat25); experiment: EMSA; 1:1 KD; repeated in Table 4; conditions: protein: synthetic, tags: peptide fragment, label: 32P, hairpin, stem-bulge-loop
[3] = target: T2, HIV-1 Tat 37-mer peptide (tat37); experiment: EMSA; 1:1 KD; 2-3:1 KD 8200 nM; Table 4 gives 60 nM; 4 C; conditions: protein: synthetic; tags: chemically synthesized peptide, RP HPLC purified (UCSF Biotechnology Resource Core); label: 32P; hairpin, stem-bulge-loop

| Binder | Kd [1] [nM] | Kd [2] [nM] | Kd [3] [nM] |
| --- | --- | --- | --- |
| GCCAGAUCUGAGCCUGGGAGCUCUCUGGC (ssRNA) [deltaTAR29 #3153 (16-45 -A17)] | 17.3 | – | – |
| GCCAGAUCUGAGCCUGGGAGCUCUCUGGC (ssRNA, 2'-OMe throughout) [2'-OMe deltaTAR #2306 29-mer (16-45 -A17)] | – | 31.6 | 86.6 |
